Data published in the DeepSol protein solubility set.

Experiment: soluble on expression in E. coli; label from the status in PepcDB or PDB records

Soluble on expression in E. coli, not soluble:
MGSDKIHHHHHHMSYRLNIENLREFMSETSDSCEHLVFPQKRGIYRAQKEWIASGITLFKCTLRAEDEVVIEQKESAFFGGAFIHVVLEGGVSFETSQPKGSFEYRRGYTTAMEALHPSGITRVARGVSVHSIGIHIHEDFLRSREIEWKKIAKEPRLLPSNPKVEWIAKSLYQGRGGAQSDADRLRVESQILEILSCELQREETRGGMERVKLSGYDLEALHKARVILEQNLKNPPSLIELSRAIHLNEFKLKFGFKRLFGVAPYEMLFLFRMQRARGLLEEGIFSVGEVAKEVGYAQQSSFSAAFFRHFGVLPKEVAKSWKD
MGSDKIHHHHHHMTAASSVSAPGAPTIGVDFGTTNTVVSLTLGDDQARLVRYSINNRDLFAFRSALSFHSVQGVGEAANERVVEAGPWAIEAYLEDPLETRFIQSFKTFAASAAFTETRILNKRYQFEDLLAAFLLRLRDHAGAQLSELPPRIIVGRPVTFAGSSPDEALALTRYEAAFERLGFTDIRYAYEPVGAAFFFARQLKQDATVLVADFGGGTSDFSLVRFERAADGTLRSTPLSRSGVGVAGDAFDYRIIDQLVSPELGKGSDYRSFSNSLPIPQRYYAAFARWDQLALLRASKDMRDIRALERTAVEPDKIAALIEVLDGNHGYALYRSVSALKEALSSQDQATFRFEAGSVRIEKPVARVEFEAWIAPELAAIETAVGQALDQADLTEAGVDRVFLTGGSSFVPAVREIFLRRFGADKIETGGEFESIASGLALIGREADLDLWTMRAG
MGSDKIHHHHHHMTALTPAAFHSDRNRHDAHVARIREVRPGLRIHSDDATDEFDAVMSGQCSPGLHLVLLLEGALDVSYGSRRVVLTTDGRRTGRADRDAVRPAVRMQSFLLNAVEPDTFRRRLSKGGYARRLSLAMSGEWLGHLQAASRGVLPEQLGTMLSAHLAIRFWQPTPRATALAEQIVRPPAYQPMLQAIYLESRVLELLAEAFTPLETDAAQAADASLGSRDYRRMAELRAFLASDAAQALSIDDIARHAGMSANAMQRQFRAAYGTTVFDFVREHHLQRARLALERDAVSVKQAAALAGYTSAANFATAYKRRFGVTPTLARRSDKR
MGSDKIHHHHHHMTAPLKSLFLLDPSVTYLNHGAYGATPRPVFERHVQWQYELEREPVDFLSRRFAERMAQARAILAEYVDTERDNLVYVSNGTTGVNIVARSLPLGPGDELLTTDHEHGGIERLWRFTAQKRGFEIVRHKVSLPVTTHARFVEDFWRDVTPRTRAILISQLTSPTALVFPVAAICARARARGILTIVDGSHVPGQLPLSLREMDPDFYVGILHKWVCAPKGSAFLYARPDVQPLVEPLVVSWGWEPKNPGPSKFVEYHEWQGSRDISAFLSVPSAIAFQREHDWDGVRKRCIALASDAQREVAALTREPLYHPPGAHEWHGQMVCAQLPPQTDDIALLARLRNECGIDVSVDRFGGRPRIRVSIQGYNGPDDVDRLLGSLKQLLRL
MGSDKIHHHHHHMTDRVLILGGRGRIGSSVAQDLANHTQAQITITGRSAEFGKAVSLSSGGQVQFLVLDLVEVDKLQNAIANSNLVIHCAGPFHYRDTNVLETCIAQGVNYVDVSDHRSYTSKALNFSEQAAAAGVTAIINTGIFPGISNSMVRQGVEQFDKPENIHLSYLVSGSGGAGITVMRTTFLGLQYPFETWIDGKWQVIKPYSERELVEFPPPYGRSGVYWFDMPETFTLPKAFPSVKTVITKFGSVPDFYNHLTWIAAHIFPKWLMQRRYMIEFLSHVSHSMTDVTNNFSGIGVAVRSEVTGQKDGKTAVYCSTVVHENTALASGCGTGSIAQLLLEGKLKKPGVFAVEEALPTDLFEEVMQSRGIKINHSWL
MGSDKIHHHHHHMTEFEVHIDLGGSTFPVGLARCNRVRGTERILFEYDAEWLASPDRFSLEPALALTRGAFAPPAGMTSFGSIGDSAPDTWGRRLMQRAERRRAAREGRSVRTLAESDYLLGVSDETRLGALRFRRVGETSFQAPIQAGVPALVELGRLLQVTERVLRDEETDEDLQLIFAPGSSLGGARPKASVIDQYGHLAIAKFPKDTDEYSVETWEEIALRLANQAGIVTPQHELVDVGGRAVMLSRRFDRDGTIRIPFLSAMAMMGARDGEPGSYPEMVDALTAHGAQGKTDAHALYRRVVFSVMISNVDDHLRNHGFLWLGNAGWSLAPAYDLNPVPSDLKARVLTTNIDLDESTCSVDLLEAASGYFGLTLANARRIIKDVASVTATWRNTARAVGARPAEIERMASAFEHDDLQHGLAL
MGSDKIHHHHHHMTENKNEKLGWINGHWGVFKDLKVPINDRGLNFADGIFETILILNGIPQLLDEHLNRWEKSASILEMNSPPSKEWLISLVEDGINQAQLKNINGVIRINWTRGESEQRGIDISKTSLHSFWLEIDSYQPNFESISTIISQTERRNSFSRLSSCKTFSYNQGIQARIEAKNLGFNDALLLNSQGEICCATTANILVKRENNWLTPPSNSGCLPGIMRQRGIELNIIKEALIEATPKDNDEWFLINSLSCRPIQKINKKELKISTNPKEFWLSLLKI
MGSDKIHHHHHHMTFMPEKRNADLLFRGFSKTRLMVITLIAVNGPMTVTQLSKVIKTTRSNLYQAIKEMVSDGILVQTRTVSEKNYVEKFYDINTDLFDAIKYGDIRKAIEEMDEDKLRNILYSFLRSASAILSIMAEQVNLSNKDDLDKYVDYVRKNLLIISFSTHSTKDMSKFSSMLSNFFTEIDDDNDEKKDEHLLYIVGFPILNQMGFISKSRHEKLTGDGKE
MGSDKIHHHHHHMTGFYEFFSLPDRVEVVCPLCDGCATFTYAHVLQIEKKDAHLFENEQFEIKLFNQRFAHKWPCVLFFPPLFGAVSWREKFPEKYQGASTWEHRANSAFTDGTDLGLICCHQCMAKQKHQLEWPQDAFYSIEFKGHLLWAFNKMMMQQIRDYIQAKDRDAVFASEPIVIRHLPTVFKLAKNREGLVKKINKLIYRP
MGSDKIHHHHHHMTGNDWIGSALHNSITCMGHSAAALAAPFAQASRRLIATLQAGGQVLSCGNGGSSGDAQHLASELVNRFETTRRALPAIALSTDSSVVTAIANDVCYEQIFARQIEALGRPGDCLVAFSTSGNSTNVIAAARTAQQRGMWVLALTGKEGGQLALLLRPVDIELRVPEQNTARIQEVHLVLIHALCSGVDASFVGDAPASVFHTGQVLRDWEALDEACTFRRPLVFTNGVFDVLHRGHVQYLAEARAEGACLVVGVNSDASVRRLGKGADRPVNSEEDRMAVLAGLQAVDFVTVFDDDTPLKLIQHLQPDVLIKGGDWPIERIVGADWVQAGGGRVLSIPFRHERSTTALLQKIRGSQP
MGSDKIHHHHHHMTGQMNILLANPRGFCAGVDRAISIVERALELFSPPIYVRHEVVHNRYVVQNLKDRGAIFVEELDQVPDNSIVIFSAHGVSQAVRAEAKKRGLKVFDATCPLVTKVHLQVTRASRKGVECILIGHEGHPEVEGTMGQYDNPEGGVYLIESVEDVEALQVKDPENLCFVTQTTLSVDDTLDIIAALQAKFPSIEGPRKDDICYATQNRQDAVRSLATQAKLFIVVGSKNSSNSNRLRELAEKSGAQAYLVDSAADVKAEWFANVDKVAVTAGASAPEVLVKQVIDAITHLAPSVVTEVEGRKEDVVFAVPVELR
MGSDKIHHHHHHMTHYKNNIDEAATLINSEGSAWNAINPESVARMRLQNRFKTGLDIAKYTAKIMREDMDNYDKDTSQYTQSLGCWHGFIAQQKMISIKKHLLTTKRRYLYLSGWMVAALRSEFGPLPDQSMHEKTSVAALIKELYTFLRQADARELGGLFRELDSAKESDKAAIQHKIENFETHVVPIIADIDAGFGNEEATYLMAKQMIEAGACCIQLENQVSDVKQCGHQDGKVTVPHVEFLAKINAVRYAFLELGIDDGVIVARTDSLGAGLTQKIAVTKEAGDLGDLYNSFLEVEAVDAAKLENGDVVFKQGGKLVKPARLPNGLFKFRAGTGEERCVLDCITSLQNGADLLWIETEKPHVSQIGGMVNEIRKVVPNAKLVYNNSPSFNWTLNFRQQVFDAMQKAGQDVSAYDRAQLMSVDYDGTELAIQADEKIRTFQSDSAREAGIFHHLITLPTYHTAALSTDNLAKEYFGDQGMLGYVANVQRKEIRQGIACVKHQNMAGSDIGDAHKEYFSGDQALKASGKDNTMNQF
MGSDKIHHHHHHMTIAIIIATHGVAAEQLLKTTEMLIGEQENVATIDFVPGENAETIMEKYQAKLSGDLAHCDKVLFLVDTWGGSPFNAANRVSEGKDNMDIVTGVNVPMLVETFMARDDGPSLDELVAIALETGRTGVRALRYQEPETEPTAPTSEVPAQPAASQAEPQPAMVTPNQEGHLEIGLARIDDRLIHGQVATRWTKESRVSRIVVVSDEVAKDTVRATMLKSVAPPGVTAHVVNVDKMVRVYNNPEYAGERMMLLFTNPTDVLRLSDAGVDFKSINVGGMAYRDGKKMITNAVSVDDKDIAAFKALDAKGIELDVRKVSNDNRQYMMDLLKKNNLL
MGSDKIHHHHHHMTIARRKSREVTIGNVRIGGDNPVVVQSMTNTDTRDVEQTVEQINSLAEAGCEIVRVAVLNDDAAWAIRPIKDQVTVPLVADIHFDHRLAVSALEAGVDALRINPGNIGGQKNVDKVVDAAKAHGSVIRVGVNGGSLERDLVEKYCGPTPEAMVESALRHVRMLEDRNFDNIKISLKSSSVTDTVTAYRLLGQQCEYPLHIGVTEAGTMLRGSVKSSVGIGILLWQGIGDTLRVSLTEDPVAEMAVAWEILRSLGLRFRGPEIISCPTCGRTEIDLISLAGEIERRLQNETQSFKVAVMGCVVNGPGEAREADIGIAGGRDKGIIFRHGEVIRTVKGGSNLLAAFNEELDKFLAERQGR
MGSDKIHHHHHHMTIATDSLKLITTVEQLKYYLIQAMKIEHATIPPYMTALYSIKPGKNLEAFHIIREVAVEEMLHLTLVANVYNAVGGSFASPVLTAPNFIPTYPSYLPTGSTDFKVGLTKFSKKTIETFRKIERSKDVEEGDPLVESRSLQEYLLEVVGCDPTKTFYSIGLFYAEIIRGLNALYKEKGPDLFCGDPRRQITPEYYYNGGGDIIPVTDLRSAMRALKVIQEQGEGSRSGTIYDAERELAHDYRFQQILLEKYYVIDKDDPTKSDQPNEPTGKSFNVDWNEVYPIKDNAKLSDYPEGSEVRTAALAFHSAYSEFLAKIEYAFDGHPEQLVPAVGGMFRLKEQANSLMRNPIPGNPGVNAAPIFKLDKR
MGSDKIHHHHHHMTIDDLKSFMLVCRLHSFSTAAVELSMTQSALSKRLQAIQQEVGSEFISTENRRQILITESGKVFYRYAQRIVSSYDELEQELKAYRELKKGNLQIGRVPVMSQYGLTKIINIFERSYPQIDIHLNELEGNDLLMVLKAGEIDAGIIRDIQTKTIDNNHFNSYTLDRDELKVVLPANDSLNNKKRISIEELANYQVISLESGSGIYEKMVEIYNNAGIPLNVGFKTTHIETIMGMIKNSDQITFLFKKSAMPFMNKQLVMLSLDQPIYSNLELICPRENQHKPALTKFIEYMKKYTSEPVESYP
MGSDKIHHHHHHMTIMDWNTIKGLVPVSGVQPDFVNCLDAFPVLKRAKETPQEPRYHGEGDVWTHTMMVIESLLQLPDYQTATREQQEILFFAALLHDVAKYRTTVIDPVTGQIGQPGHSRKGAIDARVLLWDADVPFAIREAICRLIAVHQVPFYCLEDERRRVSPIFTIRELSWQLSIPLLATLAEADIRGRICQDQTRVLDSIELFRELAREEGCYGQPRAFVDAHTRLSYFRGADVHPDYPLFQEPGSKVTVMCGLPASGKDTWVRTHRHDLPVVSFDDARTELGLKHGENEGKAVHWATDKARSLLRTHEPFVWNATHLSQQMRTRTLDLCYAYGAEVEIVYLERPRQELLRRNGKRDTTLSNKTLQGMLTKWELPSPTEAHVVRYES
